Measured values published in patent US20250340635A1 (HEFEI TG IMMUNOPHARMA, published 2025).

B1: murine 10D10×MICA bispecific antibody (bispecific antibody, human IgG1, kappa, L234A L235A)
chain: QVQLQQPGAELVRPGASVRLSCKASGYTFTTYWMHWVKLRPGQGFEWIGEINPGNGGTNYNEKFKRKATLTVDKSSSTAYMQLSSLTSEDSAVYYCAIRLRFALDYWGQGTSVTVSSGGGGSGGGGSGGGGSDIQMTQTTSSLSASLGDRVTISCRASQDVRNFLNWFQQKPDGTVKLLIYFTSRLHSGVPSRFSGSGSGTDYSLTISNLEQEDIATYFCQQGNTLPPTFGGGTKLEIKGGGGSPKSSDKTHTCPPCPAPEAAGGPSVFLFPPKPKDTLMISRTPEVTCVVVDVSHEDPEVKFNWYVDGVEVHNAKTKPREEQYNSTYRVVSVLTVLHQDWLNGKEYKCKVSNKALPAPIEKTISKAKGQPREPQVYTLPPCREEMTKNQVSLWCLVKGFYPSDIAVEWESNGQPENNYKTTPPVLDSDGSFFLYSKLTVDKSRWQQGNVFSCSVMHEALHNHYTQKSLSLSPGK
heavy: QVQLQESGPGLVKPSETLSLTCTVSGFSLTTYGVHWIRQPPGKGLEWIGMIWTDATTDYNAAFISRVTISVDTSKNQFSLKLSSVTAADTAVYYCARKGHGYYYAMDYWGQGTLVTVSSASTKGPSVFPLAPSSKSTSGGTAALGCLVKDYFPEPVTVSWNSGALTSGVHTFPAVLQSSGLYSLSSVVTVPSSSLGTQTYICNVNHKPSNTKVDKKVEPKSCDKTHTCPPCPAPEAAGGPSVFLFPPKPKDTLMISRTPEVTCVVVDVSHEDPEVKFNWYVDGVEVHNAKTKPREEQYNSTYRVVSVLTVLHQDWLNGKEYKCKVSNKALPAPIEKTISKAKGQPREPQVCTLPPSREEMTKNQVSLSCAVKGFYPSDIAVEWESNGQPENNYKTTPPVLDSDGSFFLVSKLTVDKSRWQQGNVFSCSVMHEALHNHYTQKSLSLSPGK
light: EIVLTQSPGTLSLSPGERATLSCTASSSVSSSYLHWYQQKPGQAPRLLIYSTSNLASGIPDRFSGSGSGTDFTLTISRLEPEDFAVYYCHQYHRSPFTFGQGTKLEIKRTVAAPSVFIFPPSDEQLKSGTASVVCLLNNFYPREAKVQWKVDNALQSGNSQESVTEQDSKDSTYSLSSTLTLSKADYEKHKVYACEVTHQGLSSPVTKSFNRGEC
notes: First chain is the murine 10D10 ScFv-Fc (knob); the heavy and light chains are those of the MICA antibody (hole); knob-into-hole heterodimer; also called NKp46 (murine 10D10)×MICA bispecific antibody
B2: humanized 10D10×MICA bispecific antibody (bispecific antibody, human IgG1, kappa, L234A L235A)
chain: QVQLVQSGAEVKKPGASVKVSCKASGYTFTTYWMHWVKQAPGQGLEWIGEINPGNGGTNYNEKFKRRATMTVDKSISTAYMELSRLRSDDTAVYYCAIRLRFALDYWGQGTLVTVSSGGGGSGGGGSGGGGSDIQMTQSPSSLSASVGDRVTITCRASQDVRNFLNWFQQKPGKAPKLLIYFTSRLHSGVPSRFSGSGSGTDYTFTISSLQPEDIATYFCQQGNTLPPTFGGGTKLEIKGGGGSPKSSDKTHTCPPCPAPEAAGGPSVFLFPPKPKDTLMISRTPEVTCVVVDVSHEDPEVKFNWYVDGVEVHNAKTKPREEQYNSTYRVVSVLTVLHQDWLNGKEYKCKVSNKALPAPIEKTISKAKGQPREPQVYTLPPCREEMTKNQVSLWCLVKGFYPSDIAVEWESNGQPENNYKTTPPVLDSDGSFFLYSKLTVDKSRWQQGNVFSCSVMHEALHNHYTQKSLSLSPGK
heavy: B1 heavy
light: B1 light
notes: First chain is the humanized h10D10 ScFv-Fc (knob); the heavy and light chains are those of the MICA antibody (hole); also called h10D10×MICA; NKp46 (humanized 10D10)×MICA bispecific antibody
B3: Jeru4602 (antibody, human IgG1, kappa, L234A L235A, V domains shown)
VH: QVTLKESGPGILQPSQTLSLTCSFSGFSLSTYGIGVGWNRQPSGKGLEWLAHIWWNDNEYYNIDLKSRLTISKDTSNNQVFLKIASVDTADTATYYCVRGNYRYARGYVMDYWGQGTSVTVSS
VL: DIVLTQSPASLAVSLGQRATISCRASESVEYYGTSLMQWYQQKPGQPPKLLIYAASNVESGVPARFSGSGSGTDFSLNIHPVEEDDFAMYFCQQNRKVPWTFGGGTKLEIKR
notes: also called control antibody 2; NKp46 antibody disclosed in U.S. Ser. No. 10/716,864

Experiments:
[1] = biological target: T1, human MICA-His fusion protein (human, UniProt Q29983 24-307); test: ELISA, MICA-His coated, anti-human HRP
T1 construct: extracellular domain; also called MICA extracellular region His tag fusion protein; not shown: His tag
T1 sequence (looked up): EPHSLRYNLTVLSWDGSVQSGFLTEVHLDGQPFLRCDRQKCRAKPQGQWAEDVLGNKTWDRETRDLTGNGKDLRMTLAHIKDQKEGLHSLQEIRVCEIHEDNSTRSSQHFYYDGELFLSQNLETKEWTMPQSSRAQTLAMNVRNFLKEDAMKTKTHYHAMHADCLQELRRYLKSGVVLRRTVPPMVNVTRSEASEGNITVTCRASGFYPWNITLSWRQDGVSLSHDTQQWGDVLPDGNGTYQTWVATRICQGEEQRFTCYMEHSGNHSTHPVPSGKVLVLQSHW

[2] = biological target: T2, human NKp46-His fusion protein (human, UniProt O76036 22-258); test: ELISA, NKp46-His coated, anti-human HRP
T2 construct: Bought from Acro; also called NKp46 extracellular region His tag fusion protein; not shown: His tag

[3] = biological target: T3, cynomolgus monkey-His fusion protein (cynomolgus monkey, UniProt Q95JB9 22-257); test: not described at this place ("Validation has shown"); Jeru4602 was tested by ELISA on coated cynomolgus NKp46-His in Example 7
T3 construct: extracellular domain; also called cynomolgus monkey NKp46; monkey NKp46; not shown: His tag
Experimental: The binding characteristics of the humanized 10D10 antibody prepared in Example 6 was detected using the ELISA assay. The NKp46 extracellular region His tag fusion protein (NKp46-His) was coated into a 96-well plate. The signal intensity after antibody addition was used to determine the binding characteristics of the antibody to NKp46. The specific steps were as follows:
The human NKp46-His fusion protein and cynomolgus monkey-His fusion protein (for specific sources, see Example 2) were diluted to 1 μg/mL with PBS buffer, added to a 96-well plate at 100 μL/well and left overnight at 4° C. The PBS buffer solution was removed from the 96-well plate. The plate was washed 6 times with PBST (pH 7.2, PBS containing 0.1% Tween 20) buffer solution. PBS/10% BSA was added at 200 μL/well and incubated at 37° C. for 2 hours for blocking. The blocking solution was removed. The plate was washed 6 times with PBST. […] The absorbance at […] was read with a microplate reader.

T2 sequence (O76036 22-258 Q82K): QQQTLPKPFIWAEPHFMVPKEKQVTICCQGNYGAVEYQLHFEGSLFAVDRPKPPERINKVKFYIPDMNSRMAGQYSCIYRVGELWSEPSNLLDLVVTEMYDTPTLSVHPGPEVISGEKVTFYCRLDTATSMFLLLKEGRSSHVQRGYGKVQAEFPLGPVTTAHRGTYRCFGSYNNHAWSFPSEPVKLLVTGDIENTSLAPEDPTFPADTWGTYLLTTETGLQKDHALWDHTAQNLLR
T3 sequence (Q95JB9 22-257): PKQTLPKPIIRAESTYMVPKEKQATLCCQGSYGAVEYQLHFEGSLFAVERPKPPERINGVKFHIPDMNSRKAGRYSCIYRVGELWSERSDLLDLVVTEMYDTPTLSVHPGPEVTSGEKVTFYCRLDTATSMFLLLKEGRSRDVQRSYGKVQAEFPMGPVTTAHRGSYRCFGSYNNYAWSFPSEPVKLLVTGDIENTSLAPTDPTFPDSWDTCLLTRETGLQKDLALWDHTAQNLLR

Binder | binding result [1] | binding result [2] | binding result [3]
B1 | binds | binds | –
B2 | binds | binds | –
B3 | – | – | no binding
